Measurements taken from paper PMC3894988, “Human Variants in the Neuronal Basic Helix-Loop-Helix/Per-Arnt-Sim (bHLH/PAS) Transcription Factor Complex NPAS4/ARNT2 Disrupt Function” (PLoS ONE, 2014).

Legend:
[1] = target: endogenous ARNT2 (HEK293T) (human (endogenous in HEK293T)) (UniProt Q9HBZ2)
[2] = target: ARNT2, overexpressed (human Aryl hydrocarbon Receptor Nuclear Translator 2) (human, UniProt Q9HBZ2 1-717); assay: cell-based or functional assay
Sequence of ARNT2, overexpressed (human Aryl hydrocarbon Receptor Nuclear Translator 2) (Q9HBZ2 whole entry): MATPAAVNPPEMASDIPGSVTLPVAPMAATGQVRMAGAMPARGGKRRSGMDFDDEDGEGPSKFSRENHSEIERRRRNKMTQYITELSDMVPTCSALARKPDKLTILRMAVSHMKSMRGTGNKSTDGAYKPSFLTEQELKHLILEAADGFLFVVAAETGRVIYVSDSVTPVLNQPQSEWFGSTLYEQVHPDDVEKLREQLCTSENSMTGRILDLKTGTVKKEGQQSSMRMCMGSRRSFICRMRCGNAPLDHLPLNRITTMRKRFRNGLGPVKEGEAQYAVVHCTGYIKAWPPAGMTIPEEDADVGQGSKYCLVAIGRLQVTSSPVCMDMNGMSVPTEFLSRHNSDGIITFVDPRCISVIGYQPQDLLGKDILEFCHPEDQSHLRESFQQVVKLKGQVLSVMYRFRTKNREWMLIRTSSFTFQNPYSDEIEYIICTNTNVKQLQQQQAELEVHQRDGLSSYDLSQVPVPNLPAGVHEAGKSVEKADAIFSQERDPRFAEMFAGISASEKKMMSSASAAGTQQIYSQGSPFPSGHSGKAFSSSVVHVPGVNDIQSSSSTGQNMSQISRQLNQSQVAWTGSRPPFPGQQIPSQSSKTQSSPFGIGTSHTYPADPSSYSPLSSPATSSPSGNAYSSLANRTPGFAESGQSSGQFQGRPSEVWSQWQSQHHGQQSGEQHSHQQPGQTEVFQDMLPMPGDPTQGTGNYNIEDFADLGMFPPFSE

Sequence of endogenous ARNT2 (HEK293T) (human (endogenous in HEK293T)) (Q9HBZ2 whole entry): as above

Row | induction of BDNF exon I mRNA in 293TREX cells (quantitative real-time PCR), reduction against WT NPAS4 [1] | activity on the 6xCME-Luc luciferase reporter gene in HEK293T cells, percent of WT NPAS4 [2] | Binder
1 | 90% | – | NPAS4.F147S-mycFlag (natural protein) MYRSTKGASKARRDQINAEIRNLKELLPLAEADKVRLSYLHIMSLACIYTRKGVFFAGGTPLAGPTGLLSAQELEDIVAALPGFLLVFTAEGKLLYLSESVSEHLGHSMVDLVAQGDSIYDIIDPADHLTVRQQLTLPSALDTDRLSRCRFNTSKSLRRQSAGNKLVLIRGRFHAHPPGAYWAGNPVFTAFCAPLEPRPRPGPGPGPGPASLFLAMFQSRHAKDLALLDISESVLIYLGFERSELLCKSWYGLLHPEDLAHASAQHYRLLAESGDIQAEMVVRLQAKTGGWAWIYCLLYSEGPEGPITANNYPISDMEAWSLRQQLNSEDTQAAYVLGTPTMLPSFPENILSQEECSSTNPLFTAALGAPRSTSFPSAPELSVVSASEELPRPSKELDFSYLTFPSGPEPSLQAELSKDLVCTPPYTPHQPGGCAFLFSLHEPFQTHLPTPSSTLQEQLTPSTATFSDQLTPSSATFPDPLTSPLQGQLTETSVRSYEDQLTPCTSTFPDQLLPSTATFPEPLGSPAHEQLTPPSTAFQAHLDSPSQTFPEQLSPNPTKTYFAQEGCSFLYEKLPPSPSSPGNGDCTLLALAQLRGPLSVDVPLVPEGLLTPEASPVKQSFFHYSEKEQNEIDRLIQQISQLAQGMDRPFSAEAGTGGLEPLGGLEPLDSNLSLSGAGPPVLSLDLKPWKCQELDFLADPDNMFLEETPVEDIFMDLSTPDPSEEWGSGDPEAEGPGGAPSPCNNLSPEDHSFLEDLATYETAFETGVSAFPYDGFTDELHQLQSQVQDSFHEDGSGGEPTF
2 | – | ~65 % of wt | NPAS4.F147A-mycFlag (natural protein, human, UniProt Q8IUM7 1-802, looked up) MYRSTKGASKARRDQINAEIRNLKELLPLAEADKVRLSYLHIMSLACIYTRKGVFFAGGTPLAGPTGLLSAQELEDIVAALPGFLLVFTAEGKLLYLSESVSEHLGHSMVDLVAQGDSIYDIIDPADHLTVRQQLTLPSALDTDRLARCRFNTSKSLRRQSAGNKLVLIRGRFHAHPPGAYWAGNPVFTAFCAPLEPRPRPGPGPGPGPASLFLAMFQSRHAKDLALLDISESVLIYLGFERSELLCKSWYGLLHPEDLAHASAQHYRLLAESGDIQAEMVVRLQAKTGGWAWIYCLLYSEGPEGPITANNYPISDMEAWSLRQQLNSEDTQAAYVLGTPTMLPSFPENILSQEECSSTNPLFTAALGAPRSTSFPSAPELSVVSASEELPRPSKELDFSYLTFPSGPEPSLQAELSKDLVCTPPYTPHQPGGCAFLFSLHEPFQTHLPTPSSTLQEQLTPSTATFSDQLTPSSATFPDPLTSPLQGQLTETSVRSYEDQLTPCTSTFPDQLLPSTATFPEPLGSPAHEQLTPPSTAFQAHLDSPSQTFPEQLSPNPTKTYFAQEGCSFLYEKLPPSPSSPGNGDCTLLALAQLRGPLSVDVPLVPEGLLTPEASPVKQSFFHYSEKEQNEIDRLIQQISQLAQGMDRPFSAEAGTGGLEPLGGLEPLDSNLSLSGAGPPVLSLDLKPWKCQELDFLADPDNMFLEETPVEDIFMDLSTPDPSEEWGSGDPEAEGPGGAPSPCNNLSPEDHSFLEDLATYETAFETGVSAFPYDGFTDELHQLQSQVQDSFHEDGSGGEPTF
